Data from patent US20220135665A1.
Several values for one entry are separate records, joined by “and”; a condition that tells them apart may be missing. Equal values may be shown once.

Legend:
[1] = target: recombinant human VEGF165 protein (human) (UniProt P15692); experiment: streptavidin-coated sensor with immobilized biotin-labeled VEGF165; reference Lucentis
[2] = target: recombinant human VEGF165 protein (human) (UniProt P15692); experiment: cell-based or functional assay
[3] = target: recombinant human VEGF165 protein (human) (UniProt P15692); experiment: streptavidin-coated sensor with immobilized biotin-labeled VEGF165, Fab at multiple concentrations
[4] = target: recombinant human VEGF165 protein (human) (UniProt P15692); experiment: ELISA; coated VEGF165 titrated (0.15-3000 ng/mL), Fab fixed at 1 ug/mL; EC50 is in coated antigen concentration
[5] = target: recombinant human VEGF165 protein (human) (UniProt P15692); experiment: Table 3, binding affinity to recombinant VEGF165 (streptavidin-coated sensor, biotin-labeled VEGF165)

Binder	fold affinity against Lucentis [1] [fold]	EC50(nM), neutralization of HUVEC proliferation, VEGF165 at 10 ng/mL [2]	Kd [3] [nM]	koff [3] [s⁻¹]	kon [3] [M⁻¹ s⁻¹]	EC50 [4] [mg/L]	Kd [5] [nM]	koff [5] [s⁻¹]	kon [5] [M⁻¹ s⁻¹]	EC50(nM), neutralization of HUVEC proliferation, VEGF165 at 100 ng/mL [2] [nM]	EC50(nM), neutralization of HUVEC proliferation, VEGF165 at 1000 ng/mL [2] [nM]	Maximum neutralization rate (%), VEGF165 at 10 ng/mL [2] [%]	Maximum neutralization rate (%), VEGF165 at 100 ng/mL [2] [%]	Maximum neutralization rate (%), VEGF165 at 1000 ng/mL [2] [%]
humanized antibody VEGF-H988 Fab fragment (Fab, V domains shown) VH: QSVQESGPGLVKPSETLSLTCTVSGIDLSSYAISWVRQPPGKGLEYIGYIWNDLFTYYASWAKGRVTISVDTSKNQVDLKLSSVTAADTAVYFCARGTLGDYGGMDPWGQGTLVTVSS VL: ELQLTQSPSSLSASVGDRVTITCQSSKFLWQGRRLAWYQQKPGKVPKLLIYGASTLASGVPSRFKGSGSGTDFTLTISSLQPEDVATYYCAGYKSYDGDVVGFGGGTKVEIKR	3.75	0.23 nM and 0.18 nM and 0.22 nM	0.154	4.21e-05	274000	0.0187								
VEGF-H988 (sample label in Table 3) (antibody, V domains shown) VH: QSVQESGPGLVKPSETLSLTCTVSGIDLSSYAISWVRQPPGKGLEYIGYIWNDLFTYYASWAKGRVTISVDTSKNQVDLKLSSVTAADTAVYFCARGTLGDYGGMDPWGQGTLVTVSS VL: ELQLTQSPSSLSASVGDRVTITCQSSKFLWQGRRLAWYQQKPGKVPKLLIYGASTLASGVPSRFKGSGSGTDFTLTISSLQPEDVATYYCAGYKSYDGDVVGFGGGTKVEIK							0.0195	6.7e-06	344000					
Brolucizumab (scFv, INN chains, looked up, V domains shown, scFv) VH: EVQLVESGGGLVQPGGSLRLSCTASGFSLTDYYYMTWVRQAPGKGLEWVGFIDPDDDPYYATWAKGRFTISRDNSKNTLYLQMNSLRAEDTAVYYCAGGDHNSGWGLDIWGQGTLVTVSS VL: EIVMTQSPSTLSASVGDRVIITCQASEIIHSWLAWYQQKPGKAPKLLIYLASTLASGVPSRFSGSGSGAEFTLTISSLQPDDFATYYCQNVYLASTNGANFGQGTKLTVL		0.41 nM								6.74	71.2	100	101	101
